Assay results reported in article PMC11515973, “8-Oxoguanine DNA Glycosylase1 conceals oxidized guanine in nucleoprotein-associated RNA of respiratory syncytial virus”.

B1: 8oxo-rG:rC (dsRNA)
RNA 1: GGGGCAAAUGCAAACAUGUCCAAAAACAAGGACCAACGCA
RNA 2: UGCGUUGGUCCUUGUUUUUGGACAUGUUUGCAUUUGCCCC
modifications: single 8-oxoguanine at the end of GGGG

Target: OGG1 (ENZ-253, ProSpec) (UniProt O15527 1-345)
Assay: EMSA
Details: protein: commercial, label: Cy5

Sequence of OGG1 (ENZ-253, ProSpec) (O15527 whole entry): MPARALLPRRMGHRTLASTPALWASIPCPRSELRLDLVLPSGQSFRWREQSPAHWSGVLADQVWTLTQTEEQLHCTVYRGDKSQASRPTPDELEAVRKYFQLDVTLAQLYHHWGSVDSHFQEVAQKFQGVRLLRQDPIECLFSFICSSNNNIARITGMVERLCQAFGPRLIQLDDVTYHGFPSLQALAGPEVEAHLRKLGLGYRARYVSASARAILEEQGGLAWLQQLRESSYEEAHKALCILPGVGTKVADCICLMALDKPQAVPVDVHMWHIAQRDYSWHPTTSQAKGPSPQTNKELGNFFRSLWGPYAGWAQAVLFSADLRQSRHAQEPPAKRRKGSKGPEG

Binder | binding result (predicted secondary structure) | binding result (annealed duplex)
GGGGCAAAUGCAAACAUGUCCAAAAACAAGGACCAACGCA (structured_RNA, single 8-oxoguanine at the end of GGGG) [8oxo-rG, undenatured] | binds | –
B1 | – | binds
